Measured values: publication PMC10397247

Legend:
Assay in all cases: two-hybrid library CCNG1;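 note: natural log of median RNA to DNA barcode read ratio; higher means stronger binding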
[1] = target: T1, 4H235-bA
T1 chain: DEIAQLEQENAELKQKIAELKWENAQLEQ

[2] = target: T2, 4H2692-bA
T2 chain: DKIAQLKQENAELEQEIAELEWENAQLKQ

[3] = target: T3, 4H2588-bA
T3 chain: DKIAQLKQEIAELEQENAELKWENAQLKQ

[4] = target: T4, 4H492-bA
T4 chain: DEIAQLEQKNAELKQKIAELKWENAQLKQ

[5] = target: T5, 4H2444-bA
T5 chain: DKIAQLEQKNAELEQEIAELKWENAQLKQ

[6] = target: T6, 4H2223-bA
T6 chain: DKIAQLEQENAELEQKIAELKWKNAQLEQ

[7] = target: T7, 4H56-bA
T7 chain: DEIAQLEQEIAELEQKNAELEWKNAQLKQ

[8] = target: T8, 4H2717-bA
T8 chain: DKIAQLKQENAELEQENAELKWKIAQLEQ

[9] = target: T9, 4H796-bA
T9 chain: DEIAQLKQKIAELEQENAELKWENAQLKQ

[10] = target: T10, 4H2473-bA
T10 chain: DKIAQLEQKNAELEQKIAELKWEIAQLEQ

[11] = target: T11, 4H932-bA
T11 chain: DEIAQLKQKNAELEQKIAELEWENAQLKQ

[12] = target: T12, 4H730-bA
T12 chain: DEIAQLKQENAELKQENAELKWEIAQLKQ

[13] = target: T13, 4H741-bA
T13 chain: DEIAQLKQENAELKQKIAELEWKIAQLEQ

[14] = target: T14, 4H2915-bA
T14 chain: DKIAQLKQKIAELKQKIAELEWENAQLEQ

[15] = target: T15, 4H3041-bA
T15 chain: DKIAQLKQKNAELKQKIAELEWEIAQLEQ

[16] = target: T16, 4H2503-bA
T16 chain: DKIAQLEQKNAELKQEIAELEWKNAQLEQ

[17] = target: T17, 4H3381-bA
T17 chain: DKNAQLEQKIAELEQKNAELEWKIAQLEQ

[18] = target: T18, 4H3364-bA
T18 chain: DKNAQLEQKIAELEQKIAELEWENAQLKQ

[19] = target: T19, O3-bA
T19 chain: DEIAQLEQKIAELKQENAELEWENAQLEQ

[20] = target: T20, 4H319-bA
T20 chain: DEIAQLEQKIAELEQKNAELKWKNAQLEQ

[21] = target: T21, 4H349-bA
T21 chain: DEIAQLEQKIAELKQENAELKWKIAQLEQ

[22] = target: T22, 4H949-bA
T22 chain: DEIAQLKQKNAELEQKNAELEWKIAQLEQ

[23] = target: T23, 4H2931-bA
T23 chain: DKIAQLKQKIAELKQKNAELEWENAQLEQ

[24] = target: T24, 4H348-bA
T24 chain: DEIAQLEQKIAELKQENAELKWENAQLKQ

[25] = target: T25, 4H477-bA
T25 chain: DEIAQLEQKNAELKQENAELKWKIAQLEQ

[26] = target: T26, 4H2859-bA
T26 chain: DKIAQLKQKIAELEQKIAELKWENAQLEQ

[27] = target: T27, 4H2839-bA
T27 chain: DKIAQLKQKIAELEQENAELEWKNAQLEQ

[28] = target: T28, 4H2253-bA
T28 chain: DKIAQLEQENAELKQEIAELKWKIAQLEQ

[29] = target: T29, 4H2143-bA
T29 chain: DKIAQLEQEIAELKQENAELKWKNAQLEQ

[30] = target: T30, 4H2518-bA
T30 chain: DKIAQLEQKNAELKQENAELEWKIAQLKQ

[31] = target: T31, 4H2233-bA
T31 chain: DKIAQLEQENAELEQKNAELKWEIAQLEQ

[32] = target: T32, 4H2760-bA
T32 chain: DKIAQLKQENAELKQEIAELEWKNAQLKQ

[33] = target: T33, 4H2438-bA
T33 chain: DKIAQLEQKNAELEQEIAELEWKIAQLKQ

[34] = target: T34, 4H883-bH
T34 chain: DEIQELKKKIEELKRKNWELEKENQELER

[35] = target: T35, 4H2162-bA
T35 chain: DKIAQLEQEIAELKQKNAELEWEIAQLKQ

[36] = target: T36, P1A-bH
T36 chain: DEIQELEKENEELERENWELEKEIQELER

[37] = target: T37, 4H3057-bA
T37 chain: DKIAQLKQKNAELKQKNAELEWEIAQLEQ

[38] = target: T38, 4H2585-bA
T38 chain: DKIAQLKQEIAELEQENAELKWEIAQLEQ

[39] = target: T39, 4H3277-bA
T39 chain: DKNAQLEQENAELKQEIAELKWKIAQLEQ

[40] = target: T40, 4H264-bA
T40 chain: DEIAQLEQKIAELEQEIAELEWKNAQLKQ

[41] = target: T41, 4H40-bA
T41 chain: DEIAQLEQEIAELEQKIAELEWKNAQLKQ

[42] = target: T42, 4H3297-bA
T42 chain: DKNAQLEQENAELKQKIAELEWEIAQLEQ

[43] = target: T43, 4H780-bN
T43 chain: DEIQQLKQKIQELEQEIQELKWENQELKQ

[44] = target: T44, 4H457-bN
T44 chain: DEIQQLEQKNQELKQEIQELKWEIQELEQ

[45] = target: T45, 4H118-bN
T45 chain: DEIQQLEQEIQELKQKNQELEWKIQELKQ

[46] = target: T46, 4H797-bN
T46 chain: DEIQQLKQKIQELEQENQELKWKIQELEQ

[47] = target: T47, 4H346-bN
T47 chain: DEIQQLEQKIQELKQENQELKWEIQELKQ

[48] = target: T48, 4H683-bN
T48 chain: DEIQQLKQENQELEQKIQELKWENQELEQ

[49] = target: T49, 4H3010-bN
T49 chain: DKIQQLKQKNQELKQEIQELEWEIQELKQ

[50] = target: T50, 4H953-bN
T50 chain: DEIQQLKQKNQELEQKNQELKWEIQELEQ

[51] = target: T51, 4H968-bN
T51 chain: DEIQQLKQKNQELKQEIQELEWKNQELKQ

[52] = target: T52, 4H855-bN
T52 chain: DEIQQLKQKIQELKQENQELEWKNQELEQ

[53] = target: T53, 4H2586-bN
T53 chain: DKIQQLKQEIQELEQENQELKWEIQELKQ

[54] = target: T54, 4H170-bN
T54 chain: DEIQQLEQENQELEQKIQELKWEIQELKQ

[55] = target: T55, 4H754-bN
T55 chain: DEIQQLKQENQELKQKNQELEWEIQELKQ

[56] = target: T56, 4H2673-bN
T56 chain: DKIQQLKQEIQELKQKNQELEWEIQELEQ

[57] = target: T57, 4H1831-bN
T57 chain: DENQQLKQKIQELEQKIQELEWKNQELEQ

[58] = target: T58, O15-bS
T58 chain: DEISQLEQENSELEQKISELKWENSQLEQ

[59] = target: T59, 4H918-bN
T59 chain: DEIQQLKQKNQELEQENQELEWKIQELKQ

[60] = target: T60, 4H575-bN
T60 chain: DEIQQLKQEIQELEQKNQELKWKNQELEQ

[61] = target: T61, 4H3926-bN
T61 chain: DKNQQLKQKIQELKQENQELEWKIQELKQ

[62] = target: T62, 4H2702-bN
T62 chain: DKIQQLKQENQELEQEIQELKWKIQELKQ

[63] = target: T63, 4H3427-bN
T63 chain: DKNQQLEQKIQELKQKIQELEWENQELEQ

[64] = target: T64, 4H4073-bN
T64 chain: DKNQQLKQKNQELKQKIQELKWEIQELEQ

[65] = target: T65, 4H3112-bN
T65 chain: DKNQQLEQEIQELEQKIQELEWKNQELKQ

[66] = target: T66, 4H2627-bN
T66 chain: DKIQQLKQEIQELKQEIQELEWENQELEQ

## DKIAQLEQEIAELKQENAELKWKNAQLEQ [4H2143-bA]
[1]
  interaction score: -1.89
[2]
  interaction score: -0.33
[3]
  interaction score: 0.968
[4]
  interaction score: -0.554
[5]
  interaction score: -0.654
[6]
  interaction score: -0.911
[7]
  interaction score: -0.735
[8]
  interaction score: 0.447
[9]
  interaction score: -0.0583
[10]
  interaction score: -0.712
[11]
  interaction score: -0.976
[12]
  interaction score: -0.518
[13]
  interaction score: -1.07
[14]
  interaction score: 0.145
[15]
  interaction score: 0.0855
[16]
  interaction score: -0.661
[17]
  interaction score: -0.302
[18]
  interaction score: -0.25
[19]
  interaction score: 0.533
[20]
  interaction score: -1.13
[21]
  interaction score: -0.729
[22]
  interaction score: -0.273
[23]
  interaction score: 0.604
[24]
  interaction score: -2.35
[25]
  interaction score: -1.41
[26]
  interaction score: 0.213
[27]
  interaction score: 0.951
[28]
  interaction score: -0.521
[29]
  interaction score: 0.408
[30]
  interaction score: -0.404
[31]
  interaction score: -0.508
[32]
  interaction score: -0.549
[33]
  interaction score: -0.866
[34]
  interaction score: -0.0863
[35]
  interaction score: -0.188
[36]
  interaction score: -0.594
[37]
  interaction score: -0.0999
[38]
  interaction score: 0.499
[39]
  interaction score: -0.971
[40]
  interaction score: -1.37
[41]
  interaction score: -1.53
[42]
  interaction score: -0.562

## DEIQQLEQEIQELKQKNQELEWKIQELKQ [4H118-bN]
[43]
  interaction score: -0.129
[44]
  interaction score: -1.63
[45]
  interaction score: 0.139
[46]
  interaction score: -0.885
[47]
  interaction score: -0.129
[48]
  interaction score: -0.936
[49]
  interaction score: 2.35
[50]
  interaction score: -0.648
[51]
  interaction score: 0.0583
[52]
  interaction score: 0.221
[53]
  interaction score: 0.735
[54]
  interaction score: -1.27
[55]
  interaction score: -0.655
[56]
  interaction score: 1.25
[57]
  interaction score: -0.392
[58]
  interaction score: -1.04
[59]
  interaction score: -0.314
[60]
  interaction score: -0.336
[61]
  interaction score: 1.02
[62]
  interaction score: 0.0476
[63]
  interaction score: -0.395
[64]
  interaction score: -1.59
[65]
  interaction score: -0.413
[66]
  interaction score: 0.463
